# T1: UBE2N (human, UniProt P61088 1-152)
# T1 construct: endogenous prey from cell lysate; also called UBC13
# T1 sequence (looked up): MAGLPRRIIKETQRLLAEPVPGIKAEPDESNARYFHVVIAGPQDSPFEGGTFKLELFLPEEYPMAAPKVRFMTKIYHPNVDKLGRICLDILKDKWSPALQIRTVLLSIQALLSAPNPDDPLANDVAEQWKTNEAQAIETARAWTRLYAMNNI
# B1: S100 Calcium Binding Protein A3 (other, human, UniProt P33764 2-101, looked up)
# chain: ARPLEQAVAAIVCTFQEYAGRCGDKYKLCQAELKELLQKELATWTPTEFRECDYNKFMSVLDTNKDCEVDFVEYVRSLACLCLYCHEYFKDCPSEPPCSQ
# notes: endogenous prey from cell lysate; also called S100A3
# B2: keratin KRT32 (other, human, UniProt Q14532 1-448, looked up)
# chain: MTSSCCVTNNLQASLKSCPRPASVCSSGVNCRPELCLGYVCQPMACLPSVCLPTTFRPASCLSKTYLSSSCQAASGISGSMGPGSWYSEGAFNGNEKETMQFLNDRLASYLTRVRQLEQENAELESRIQEASHSQVLTMTPDYQSHFRTIEELQQKILCTKAENARMVVNIDNAKLAADDFRAKYEAELAMRQLVEADINGLRRILDDLTLCKADLEAQVESLKEELMCLKKNHEEEVGSLRCQLGDRLNIEVDAAPPVDLTRVLEEMRCQYEAMVEANRRDVEEWFNMQMEELNQQVATSSEQLQNYQSDIIDLRRTVNTLEIELQAQHSLRDSLENTLTESEARYSSQLAQMQCMITNVEAQLAEIRADLERQNQEYQVLLDVRARLEGEINTYRSLLENEDCKLPCNPCSTPSCTTCVPSPCVPRTVCVPRTVGMPCSPCPQGRY
# notes: endogenous prey from cell lysate
# B3: BRCA1 I26A (enzyme, human, UniProt P38398 1-1863, looked up)
# chain: MDLSALRVEEVQNVINAMQKILECPACLELIKEPVSTKCDHIFCKFCMLKLLNQKKGPSQCPLCKNDITKRSLQESTRFSQLVEELLKIICAFQLDTGLEYANSYNFAKKENNSPEHLKDEVSIIQSMGYRNRAKRLLQSEPENPSLQETSLSVQLSNLGTVRTLRTKQRIQPQKTSVYIELGSDSSEDTVNKATYCSVGDQELLQITPQGTRDEISLDSAKKAACEFSETDVTNTEHHQPSNNDLNTTEKRAAERHPEKYQGSSVSNLHVEPCGTNTHASSLQHENSSLLLTKDRMNVEKAEFCNKSKQPGLARSQHNRWAGSKETCNDRRTPSTEKKVDLNADPLCERKEWNKQKLPCSENPRDTEDVPWITLNSSIQKVNEWFSRSDELLGSDDSHDGESESNAKVADVLDVLNEVDEYSGSSEKIDLLASDPHEALICKSERVHSKSVESNIEDKIFGKTYRKKASLPNLSHVTENLIIGAFVTEPQIIQERPLTNKLKRKRRPTSGLHPEDFIKKADLAVQKTPEMINQGTNQTEQNGQVMNITNSGHENKTKGDSIQNEKNPNPIESLEKESAFKTKAEPISSSISNMELELNIHNSKAPKKNRLRRKSSTRHIHALELVVSRNLSPPNCTELQIDSCSSSEEIKKKKYNQMPVRHSRNLQLMEGKEPATGAKKSNKPNEQTSKRHDSDTFPELKLTNAPGSFTKCSNTSELKEFVNPSLPREEKEEKLETVKVSNNAEDPKDLMLSGERVLQTERSVESSSISLVPGTDYGTQESISLLEVSTLGKAKTEPNKCVSQCAAFENPKGLIHGCSKDNRNDTEGFKYPLGHEVNHSRETSIEMEESELDAQYLQNTFKVSKRQSFAPFSNPGNAEEECATFSAHSGSLKKQSPKVTFECEQKEENQGKNESNIKPVQTVNITAGFPVVGQKDKPVDNAKCSIKGGSRFCLSSQFRGNETGLITPNKHGLLQNPYRIPPLFPIKSFVKTKCKKNLLEENFEEHSMSPEREMGNENIPSTVSTISRNNIRENVFKEASSSNINEVGSSTNEVGSSINEIGSSDENIQAELGRNRGPKLNAMLRLGVLQPEVYKQSLPGSNCKHPEIKKQEYEEVVQTVNTDFSPYLISDNLEQPMGSSHASQVCSETPDDLLDDGEIKEDTSFAENDIKESSAVFSKSVQKGELSRSPSPFTHTHLAQGYRRGAKKLESSEENLSSEDEELPCFQHLLFGKVNNIPSQSTRHSTVATECLSKNTEENLLSLKNSLNDCSNQVILAKASQEHHLSEETKCSASLFSSQCSELEDLTANTNTQDPFLIGSSKQMRHQSESQGVGLSDKELVSDDEERGTGLEENNQEEQSMDSNLGEAASGCESETSVSEDCSGLSSQSDILTTQQRDTMQHNLIKLQQEMAELEAVLEQHGSQPSNSYPSIISDSSALEDLRNPEQSTSEKAVLTSQKSSEYPISQNPEGLSADKFEVSADSSTSKNKEPGVERSSPSKCPSLDDRWYMHSCSGSLQNRNYPSQEELIKVVDVEEQQLEESGPHDLTETSYLPRQDLEGTPYLESGISLFSDDPESDPSEDRAPESARVGNIPSSTSALKVPQLKVAESAQSPAAAHTTDTAGYNAMEESVSREKPELTASTERVNKRMSMVVSGLTPEEFMLVYKFARKHHITLTNLITEETTHVVMKTDAEFVCERTLKYFLGIAGGKWVVSYFWVTQSIKERKMLNEHDFEVRGDVVNGRNHQGPKRARESQDRKIFRGLEICCYGPFTNMPTDQLEWMVQLCGASVVKELSSFTLGTGVHPIVVVQPDAWTEDNGFHAIGQMCEAPVVTREWVLDSVALYQCQELDTYLIPQIPHSHY
# notes: 3xFLAG-tagged bait; printed I16A in the embodiments; also called RING domain mutant I26A
# B4: CSTB (other, human, UniProt P04080 1-98, looked up)
# chain: MMCGAPSATQPATAETQHIADQVRSQLEEKENKKFPVFKAVSFKSQVVAGTNYFIKVHVGDEDFVHLRVFQSLPHENKPLTLSNYQTNKAKHDELTYF
# notes: as for B2
# B5: SPRR3 (other, human, UniProt Q9UBC9 2-169, looked up)
# chain: SSYQQKQTFTPPPQLQQQQVKQPSQPPPQEIFVPTTKEPCHSKVPQPGNTKIPEPGCTKVPEPGCTKVPEPGCTKVPEPGCTKVPEPGCTKVPEPGCTKVPEPGYTKVPEPGSIKVPDQGFIKFPEPGAIKVPEQGYTKVPVPGYTKLPEPCPSTVTPGPAQQKTKQK
# notes: as for B2
# B6: RBBP8 (other, human, UniProt Q99708 1-897, looked up)
# chain: MNISGSSCGSPNSADTSSDFKDLWTKLKECHDREVQGLQVKVTKLKQERILDAQRLEEFFTKNQQLREQQKVLHETIKVLEDRLRAGLCDRCAVTEEHMRKKQQEFENIRQQNLKLITELMNERNTLQEENKKLSEQLQQKIENDQQHQAAELECEEDVIPDSPITAFSFSGVNRLRRKENPHVRYIEQTHTKLEHSVCANEMRKVSKSSTHPQHNPNENEILVADTYDQSQSPMAKAHGTSSYTPDKSSFNLATVVAETLGLGVQEESETQGPMSPLGDELYHCLEGNHKKQPFEESTRNTEDSLRFSDSTSKTPPQEELPTRVSSPVFGATSSIKSGLDLNTSLSPSLLQPGKKKHLKTLPFSNTCISRLEKTRSKSEDSALFTHHSLGSEVNKIIIQSSNKQILINKNISESLGEQNRTEYGKDSNTDKHLEPLKSLGGRTSKRKKTEEESEHEVSCPQASFDKENAFPFPMDNQFSMNGDCVMDKPLDLSDRFSAIQRQEKSQGSETSKNKFRQVTLYEALKTIPKGFSSSRKASDGNCTLPKDSPGEPCSQECIILQPLNKCSPDNKPSLQIKEENAVFKIPLRPRESLETENVLDDIKSAGSHEPIKIQTRSDHGGCELASVLQLNPCRTGKIKSLQNNQDVSFENIQWSIDPGADLSQYKMDVTVIDTKDGSQSKLGGETVDMDCTLVSETVLLKMKKQEQKGEKSSNEERKMNDSLEDMFDRTTHEEYESCLADSFSQAADEEEELSTATKKLHTHGDKQDKVKQKAFVEPYFKGDERETSLQNFPHIEVVRKKEERRKLLGHTCKECEIYYADMPAEEREKKLASCSRHRFRYIPPNTPENFWEVGFPSTQTCMERGYIKEDLDPCPRPKRRQPYNAIFSPKGKEQKT
# notes: as for B2
# Experiments:
# [1] = target: AKT3 E17K mutant (human, UniProt Q9Y243 1-479); experiment: AP-MS, 3xFLAG bait, breast cell lines
# Sequence of AKT3 E17K mutant (Q9Y243 whole entry E17K): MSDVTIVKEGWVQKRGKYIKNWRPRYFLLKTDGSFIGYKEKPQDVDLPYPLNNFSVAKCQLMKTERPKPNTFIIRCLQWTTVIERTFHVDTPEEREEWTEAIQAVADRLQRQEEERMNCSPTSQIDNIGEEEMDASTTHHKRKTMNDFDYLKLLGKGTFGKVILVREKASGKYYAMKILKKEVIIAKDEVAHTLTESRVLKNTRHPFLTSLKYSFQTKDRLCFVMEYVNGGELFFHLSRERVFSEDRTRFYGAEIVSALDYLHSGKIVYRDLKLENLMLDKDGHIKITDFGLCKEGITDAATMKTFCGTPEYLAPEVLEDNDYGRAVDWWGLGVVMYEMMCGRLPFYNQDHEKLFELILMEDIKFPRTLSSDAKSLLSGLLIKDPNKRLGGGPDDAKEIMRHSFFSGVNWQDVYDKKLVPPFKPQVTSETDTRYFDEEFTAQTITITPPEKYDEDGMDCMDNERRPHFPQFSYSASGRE
# [2] = target: T1, UBE2N; experiment: quantitative AP-MS, prey abundance normalised to bait, MDA-MB-231 cells
# [3] = target: T1, UBE2N; experiment: AP-MS, PPI score from compPASS and SAINTexpress, MDA-MB-231 cells
# Description: For AP-MS experiments, samples were resuspended in 15 μL of MS loading buffer (4% formic acid, 2% acetonitrile) and 2 μL were separated by a reversed-phase gradient over a nanoflow 75 μm ID×25 cm long picotip column packed with 1.9 μM C18 particles (Dr. Maisch). Peptides were directly injected over the course of a 75 min acquisition into a Q-Exactive Plus mass spectrometer (Thermo), or over the course of a 90 min acquisition into a Orbitrap Elite mass spectrometer. […] Peptides and proteins were filtered to 1% false discovery rate in MaxQuant, and identified proteins were then subjected to protein-protein interaction scoring.
# All PPI scoring was performed separately for each cell line. For SAINTexpress, control samples in which bait protein was not induced by addition of doxycycline were used. For CompPASS, a stats table representing all WT baits was used. After scoring, the CompPASS WD and Z-score were normalized within a given bait for each cell line. The total list of candidate PPIs was filtered to those that met the following criteria: SAINTexpress BFDR=<0.05, WD percentile by bait>=0.95, and Z-score percentile by bait≤=0.95. PPIs passing all 3 of these criteria were considered to be high-confidence PPIs. To enable visualization and analysis of PPIs by confidence score among these 3 criteria, a PPI score was calculated: [(WD percentile by bait+Z-score percentile by bait)/2)+(1−BFDR)]/2.
# [4] = target: AKT1 E17K mutant (human, UniProt P31749 1-480); experiment: AP-MS, 3xFLAG bait, breast cell lines
# Sequence of AKT1 E17K mutant (P31749 whole entry E17K): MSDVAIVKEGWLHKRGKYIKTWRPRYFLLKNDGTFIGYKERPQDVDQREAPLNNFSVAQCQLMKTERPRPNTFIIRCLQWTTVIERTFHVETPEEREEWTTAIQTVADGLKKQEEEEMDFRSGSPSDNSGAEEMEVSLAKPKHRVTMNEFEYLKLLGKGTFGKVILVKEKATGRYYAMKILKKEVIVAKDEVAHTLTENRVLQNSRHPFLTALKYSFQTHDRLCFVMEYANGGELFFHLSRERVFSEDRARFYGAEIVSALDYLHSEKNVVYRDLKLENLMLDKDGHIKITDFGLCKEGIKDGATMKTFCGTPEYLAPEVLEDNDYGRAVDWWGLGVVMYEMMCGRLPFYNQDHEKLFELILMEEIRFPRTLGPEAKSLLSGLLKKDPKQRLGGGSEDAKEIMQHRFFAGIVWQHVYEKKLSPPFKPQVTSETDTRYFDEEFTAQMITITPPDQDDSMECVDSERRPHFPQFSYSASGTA
# [5] = target: T2, BRCA1 5382insC (human, UniProt P38398 1-1755, limits assumed); experiment: AP-MS, MSstats WT vs mutant, MDA-MB-231 cells
# T2 construct: 3xFLAG-tagged bait; also called 5832insC
# [6] = target: T3, BRCA1 M1775R (human, UniProt P38398 1-1863); experiment: AP-MS, MSstats WT vs mutant, MDA-MB-231 cells
# T3 construct: 3xFLAG-tagged bait; also called BRCT domain mutant M1775R
# [7] = target: T4, BRCA1 S1655F (human, UniProt P38398 1-1863); experiment: AP-MS, MSstats WT vs mutant, MDA-MB-231 cells
# T4 construct: 3xFLAG-tagged bait; also called BRCT domain mutant S1655F; 51655F
binder,measurement,setting,value
B1,binding result,[1],no binding
B2,binding result,[1],no binding
B3,fold reduction of associated prey compared to WT,[2],6 fold
same,PPI score,[3],< 0.6
B4,binding result,[4],no binding
B5,binding result,[4],no binding
B6,binding result,[5],no binding
same,binding result,[6],no binding
same,binding result,[7],no binding

# Reference: patent publication US20240321457A1 (University of California, published 2024)
